Sequences and labels used below:
B1: Histone chaperone RTT106 (Saccharomyces cerevisiae), P40161 (parent)
chain: MSKLFLDELPESLSRKIGTVVRVLPSSLEIFEELYKYALNENSNDRSGRHKKPRIDVSSDLLKTDEISETNTIFKLEGVSVLSPLRKKLDLVFYLSNVDGSPVITLLKGNDRELSIYQLNKNIKMASFLPVPEKPNLIYLFMTYTSCEDNKFSEPVVMTLNKENTLNQFKNLGLLDSNVTDFEKCVEYIRKQAILTGFKISNPFVNSTLVDTDAEKINSFHLQCHRGTKEGTLYFLPDHIIFGFKKPILLFDASDIESITYSSITRLTFNASLVTKDGEKYEFSMIDQTEYAKIDDYVKRKQMKDKSMSEELKAKSKSKGQATDGTADQPSILQEATRQMQDEKKAGVFSDDDEENDQNFEAESDLSDGSGQESSDGAEDGEEAEEDDEEDDEEEDKKGQSALNRDNSFASINGQPEQELQYKEFKEPLELEDIPIEIDNDDDEDDEDGSGVEYD

This note sets out measurements from IntAct's records for PubMed 22307274.

In one assay the parent is B1. Particulars: with h3_yeast HHT1, P61830.
As to D295A, the “effect of a mutation on the interaction” value was “disrupting interaction strength”.

For the variant Y297A, the “effect of a mutation on the interaction” value is reported as “disrupting interaction strength”. Turning to I259A, the “effect of a mutation on the interaction” value is reported as “disrupting interaction strength”.

In a further assay the parent is B1. The following applies: with h3_yeast HHT1, P61830. The source holds these as a separate data set.
Regarding I294A, the “effect of a mutation on the interaction” value is on record as “disrupting interaction strength”.

For I259A, the “effect of a mutation on the interaction” value is “decreasing interaction strength”.

Consider F269A, for which the “effect of a mutation on the interaction” value is “disrupting interaction strength”.

Y291A: the “effect of a mutation on the interaction” value is given as “disrupting interaction strength”.

Turning to Q288A, the “effect of a mutation on the interaction” value is “decreasing interaction strength”. Y261A: the “effect of a mutation on the interaction” value is reported as “disrupting interaction strength”.
